Test results published in paper PMC9886945.
“And” between values parts separate entries of the source, which are not always exact repeats. Identical values can stand only once.

Key:
[1] = molecular target: Mycobacterium tuberculosis RNA polymerase core (M. tuberculosis) (UniProt P9WGZ1); experiment: SEC
[2] = molecular target: Mycobacterium tuberculosis RNA polymerase holoenzyme with the σ^B subunit (M. tuberculosis) (UniProt P9WGZ1); experiment: SEC
[3] = molecular target: Mycobacterium tuberculosis RNA polymerase holoenzyme with the σ^B subunit (M. tuberculosis) (UniProt P9WGZ1); experiment: cryo-EM structure
[4] = molecular target: Mycobacterium tuberculosis RNA polymerase holoenzyme with the σ^B subunit (M. tuberculosis) (UniProt P9WGZ1); experiment: negative stain EM

| Substance | stoichiometry N [1] | stoichiometry N [2] | percent of oligomer particles that are octamers [3] [%] | percent of oligomer particles that are tetramers [3] [%] | stoichiometry N [3] | RNAP concentration from which octamers form [4] [µM] | percent of molecules in oligomers after 24 h at 4 °C [4] [%] | stoichiometry N [4] |
| --- | --- | --- | --- | --- | --- | --- | --- | --- |
| Mycobacterium tuberculosis RNA polymerase core (from UniProt P9WGZ1;P9WGY9;P9WGY7;P9WGY5) (complex) | 2 | – | – | – | – | – | – | – |
| Mycobacterium tuberculosis RNA polymerase holoenzyme with the σ^B subunit, P9WGZ1;P9WGY9;P9WGY7;P9WGY5;P9WGI5 | – | 8 | 80 | 20 | 8 and 4 | 0.1 | 86 | 8 |
